± gives the standard deviation of the averaged measurements.
Test: total protein half-life in vivo (active degradation + dilution); higher = more stable protein
[1] = E. coli NCM3722 delta-clpP delta-lon delta-hslV, growth: N-lim chemostat, doubling time 6 h
[2] = E. coli NCM3722 delta-clpP, growth: N-lim chemostat, doubling time 6 h
[3] = E. coli NCM3722 delta-hslV, growth: N-lim chemostat, doubling time 6 h
[4] = E. coli NCM3722 delta-lon, growth: N-lim chemostat, doubling time 6 h
[5] = E. coli NCM3722 delta-smpB, growth: N-lim chemostat, doubling time 6 h
[6] = wild type E. coli NCM3722, growth: C-lim chemostat, doubling time 3 h
[7] = wild type E. coli NCM3722, growth: C-lim chemostat, doubling time 6 h
[8] = wild type E. coli NCM3722, growth: C-lim chemostat, doubling time 12 h
[9] = wild type E. coli NCM3722, growth: N-lim chemostat, doubling time 6 h
[10] = wild type E. coli NCM3722, growth: N-lim chemostat, doubling time 12 h
[11] = wild type E. coli NCM3722, growth: P-lim chemostat, doubling time 6 h
[12] = wild type E. coli NCM3722, growth: P-lim chemostat, doubling time 12 h

Row | Sequence | total protein half-life in vivo [1] [h] | total protein half-life in vivo [2] [h] | total protein half-life in vivo [3] [h] | total protein half-life in vivo [4] [h] | total protein half-life in vivo [5] [h] | total protein half-life in vivo [6] [h] | total protein half-life in vivo [7] [h] | total protein half-life in vivo [8] [h] | total protein half-life in vivo [9] [h] | total protein half-life in vivo [10] [h] | total protein half-life in vivo [11] [h] | total protein half-life in vivo [12] [h]
1 | MSKIFDFVKPGVITGDDVQKVFQVAKENNFALPAVNCVGTDSINAVLETAAKVKAPVIVQFSNGGASFIAGKGVKSDVPQGAAILGAISGAHHVHQMAEHYGVPVILHTDHCAKKLLPWIDGLLDAGEKHFAATGKPLFSSHMIDLSEESLQENIEICSKYLERMSKIGMTLEIELGCTGGEEDGVDNSHMDASALYTQPEDVDYAYTELSKISPRFTIAASFGNVHGVYKPGNVVLTPTILRDSQEYVSKKHNLPHNSLNFVFHGGSGSTAQEIKDSVSYGVVKMNIDTDTQWATWEGVLNYYKANEAYLQGQLGNPKGEDQPNKKYYDPRVWLRAGQTSMIARLEKAFQELNAIDVL [P0AB71] | 5.42 ± 0.2 | 5.14 ± 0.69 | 5.06 ± 0.15 | 5.07 ± 0.24 | 4.73 ± 0.32 | 3.19 ± 0.097 | 5.67 ± 0.37 | 9.46 ± 0.69 | 4.87 ± 0.47 | 8.4 ± 0.15 | 5.84 ± 0.2 | 12.19 ± 0.092
2 | MNNIWWQTKGQGNVHLVLLHGWGLNAEVWRCIDEELSSHFTLHLVDLPGFGRSRGFGALSLADMAEAVLQQAPDKAIWLGWSLGGLVASQIALTHPERVQALVTVASSPCFSARDEWPGIKPDVLAGFQQQLSDDFQRTVERFLALQTMGTETARQDARALKKTVLALPMPEVDVLNGGLEILKTVDLRQPLQNVSMPFLRLYGYLDGLVPRKVVPMLDKLWPHSESYIFAKAAHAPFISHPAEFCHLLVALKQRV | 3.79 ± 0.6 | 3.5 ± 0.15 | 3.33 | 3.66 ± 0.1 | 4.85 ± 1.8 | 3.39 ± 0.45 | 5.41 ± 0.43 | 12.1 ± 4.7 | 3.63 ± 0.25 | 6.93 ± 1.4 | 5.93 ± 0.25 | –
3 | MNSLYTAEGVMDKHSLWQRYVPLVRHEALRLQVRLPASVELDDLLQAGGIGLLNAVERYDALQGTAFTTYAVQRIRGAMLDELRSRDWVPRSVRRNAREVAQAIGQLEQELGRNATETEVAERLGIDIADYRQMLLDTNNSQLFSYDEWREEHGDSIELVTDDHQRENPLQQLLDSNLRQRVMEAIETLPEREKLVLTLYYQEELNLKEIGAVLEVGESRVSQLHSQAIKRLRTKLGKL [P0AEM6] | 4.94 | – | – | – | – | 1.78 ± 0.19 | 2.5 ± 0.38 | 3 ± 0.9 | – | – | – | –
4 | MSKIFEDNSLTIGHTPLVRLNRIGNGRILAKVESRNPSFSVKCRIGANMIWDAEKRGVLKPGVELVEPTSGNTGIALAYVAAARGYKLTLTMPETMSIERRKLLKALGANLVLTEGAKGMKGAIQKAEEIVASNPEKYLLLQQFSNPANPEIHEKTTGPEIWEDTDGQVDVFIAGVGTGGTLTGVSRYIKGTKGKTDLISVAVEPTDSPVIAQALAGEEIKPGPHKIQGIGAGFIPANLDLKLVDKVIGITNEEAISTARRLMEEEGILAGISSGAAVAAALKLQEDESFTNKNIVVILPSSGERYLSTALFADLFTEKELQQ [P0ABK5] | 5.312 ± 0.029 | 5.14 ± 0.39 | 4.87 ± 0.096 | 5.03 ± 0.31 | 4.53 ± 0.22 | 3.45 ± 0.18 | 6.1 ± 0.7 | 11.8 ± 2.1 | 4.68 ± 0.36 | 8.22 ± 0.3 | 5.72 ± 0.34 | 13.1 ± 1.2
5 | MQTQVLFEHPLNEKMRTWLRIEFLIQQLTVNLPIVDHAGALHFFRNVSELLDVFERGEVRTELLKELDRQQRKLQTWIGVPGVDQSRIEALIQQLKAAGSVLISAPRIGQFLREDRLIALVRQRLSIPGGCCSFDLPTLHIWLHLPQAQRDSQVETWIASLNPLTQALTMVLDLIRQSAPFRKQTSLNGFYQDNGGDADLLRLNLSLDSQLYPQISGHKSRFAIRFMPLDTENGQVPERLDFELACC | 6.32 ± 0.19 | 6.18 ± 0.41 | 6.06 ± 1.5 | 5.0717 ± 0.004 | 4.94 ± 0.2 | 2.66 ± 0.025 | 6.55 ± 0.5 | – | 4.87 ± 1.7 | 11.4 ± 6.5 | 5.66 ± 0.3 | 12.3 ± 1.5
6 | MSQETPASTTEAQIKNKRRISPFWLLPFIALMIASWLIWDSYQDRGNTVTIDFMSADGIVPGRTPVRYQGVEVGTVQDISLSDDLRKIEVKVSIKSDMKDALREETQFWLVTPKASLAGVSGLDALVGGNYIGMMPGKGKEQDHFVALDTQPKYRLDNGDLMIHLQAPDLGSLNSGSLVYFRKIPVGKVYDYAINPNKQGVVIDVLIERRFTDLVKKGSRFWNVSGVDANVSISGAKVKLESLAALVNGAIAFDSPEESKPAEAEDTFGLYEDLAHSQRGVIIKLELPSGAGLTADSTPLMYQGLEVGQLTKLDLNPGGKVTGEMTVDPSVVTLLRENTRIELRNPKLSLSDANLSALLTGKTFELVPGDGEPRKEFVVVPGEKALLHEPDVLTLTLTAPESYGIDAGQPLILHGVQVGQVIDRKLTSKGVTFTVAIEPQHRELVKGDSKFVVNSRVDVKVGLDGVEFLGASASEWINGGIRILPGDKGEMKASYPLYANLEKALENSLSDLPTTTVSLSAETLPDVQAGSVVLYRKFEVGEVITVRPRANAFDIDLHIKPEYRNLLTSNSVFWAEGGAKVQLNGSGLTVQASPLSRALKGAISFDNLSGASASQRKGDKRILYASETAARAVGGQITLHAFDAGKLAVGMPIRYLGIDIGQIQTLDLITARNEVQAKAVLYPEYVQTFARGGTRFSVVTPQISAAGVEHLDTILQPYINVEPGRGNPRRDFELQEATITDSRYLDGLSIIVEAPEAGSLGIGTPVLFRGLEVGTVTGMTLGTLSDRVMIAMRISKRYQHLVRNNSVFWLASGYSLDFGLTGGVVKTGTFNQFIRGGIAFATPPGTPLAPKAQEGKHFLLQESEPKEWREWGTALPK | 6.34 ± 0.49 | 6.12 ± 0.52 | 6.516 ± 0.036 | 6.06 ± 0.19 | 6.04 ± 0.27 | 3.01 ± 0.3 | – | – | 6.32 ± 0.48 | 13.1 ± 0.76 | 6.43 ± 0.74 | 13.5 ± 0.26
